Results reported in patent US20100303819A1.

Tests used:
Assay in all cases: control-mAb-coated microbeads on monocyte-derived macrophages (which carry hDCL-1, MMR and DEC-205), confocal microscopy
[1] = biological target: DEC-205 (CD205) on human monocyte-derived macrophages (human) (UniProt O60449)
[2] = biological target: MMR/CD206 on human monocyte-derived macrophages (human) (UniProt P22897)
[3] = biological target: human DCL-1 (native, on human leukocytes) (human) (UniProt Q8IX05)

Measured: microbeads bound per cell

UniProt Q8IX05, sequence (Q8IX05 23-232 limits assumed): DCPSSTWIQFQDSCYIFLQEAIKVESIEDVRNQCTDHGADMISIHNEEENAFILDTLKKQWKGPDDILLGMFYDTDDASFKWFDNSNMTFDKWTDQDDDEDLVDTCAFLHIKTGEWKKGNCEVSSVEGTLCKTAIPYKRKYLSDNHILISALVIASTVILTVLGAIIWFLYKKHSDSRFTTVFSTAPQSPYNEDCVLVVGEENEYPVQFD
UniProt P22897, sequence (P22897 19-1456): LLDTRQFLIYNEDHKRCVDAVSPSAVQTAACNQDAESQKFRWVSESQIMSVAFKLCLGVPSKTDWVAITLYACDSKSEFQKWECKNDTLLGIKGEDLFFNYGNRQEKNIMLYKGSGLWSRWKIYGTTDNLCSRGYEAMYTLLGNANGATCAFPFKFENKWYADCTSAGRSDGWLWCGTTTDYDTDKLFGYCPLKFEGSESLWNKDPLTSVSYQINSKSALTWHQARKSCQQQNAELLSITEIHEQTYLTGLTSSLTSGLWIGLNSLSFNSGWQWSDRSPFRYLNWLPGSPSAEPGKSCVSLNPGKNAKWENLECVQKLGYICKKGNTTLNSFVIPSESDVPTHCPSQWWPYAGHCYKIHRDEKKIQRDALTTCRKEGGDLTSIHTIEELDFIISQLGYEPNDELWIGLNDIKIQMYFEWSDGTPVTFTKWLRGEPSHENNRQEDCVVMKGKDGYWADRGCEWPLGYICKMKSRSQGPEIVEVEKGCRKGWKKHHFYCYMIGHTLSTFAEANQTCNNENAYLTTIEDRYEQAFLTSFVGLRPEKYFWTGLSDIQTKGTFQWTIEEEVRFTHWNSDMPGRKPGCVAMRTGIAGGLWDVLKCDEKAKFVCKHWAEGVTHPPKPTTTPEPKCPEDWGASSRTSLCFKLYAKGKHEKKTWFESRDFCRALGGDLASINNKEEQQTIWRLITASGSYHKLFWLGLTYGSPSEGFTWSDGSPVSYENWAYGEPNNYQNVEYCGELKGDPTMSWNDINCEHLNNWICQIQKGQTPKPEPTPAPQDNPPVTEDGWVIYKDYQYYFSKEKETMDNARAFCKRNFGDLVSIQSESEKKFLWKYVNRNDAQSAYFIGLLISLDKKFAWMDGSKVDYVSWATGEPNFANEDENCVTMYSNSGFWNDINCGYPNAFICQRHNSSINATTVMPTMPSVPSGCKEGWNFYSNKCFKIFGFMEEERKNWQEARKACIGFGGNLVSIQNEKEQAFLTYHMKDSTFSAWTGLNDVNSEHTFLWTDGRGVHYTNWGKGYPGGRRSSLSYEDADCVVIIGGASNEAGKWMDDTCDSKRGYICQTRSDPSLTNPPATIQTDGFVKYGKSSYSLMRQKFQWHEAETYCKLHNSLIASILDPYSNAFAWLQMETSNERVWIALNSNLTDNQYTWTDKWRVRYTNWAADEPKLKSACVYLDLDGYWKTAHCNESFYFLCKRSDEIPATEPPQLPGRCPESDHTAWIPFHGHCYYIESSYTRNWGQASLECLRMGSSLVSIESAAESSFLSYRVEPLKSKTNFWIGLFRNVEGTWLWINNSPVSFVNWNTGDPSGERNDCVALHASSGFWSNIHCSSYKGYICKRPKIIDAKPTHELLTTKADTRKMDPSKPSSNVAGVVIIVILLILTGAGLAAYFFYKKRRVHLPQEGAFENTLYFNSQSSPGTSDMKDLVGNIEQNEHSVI
UniProt O60449, sequence (O60449 28-1722): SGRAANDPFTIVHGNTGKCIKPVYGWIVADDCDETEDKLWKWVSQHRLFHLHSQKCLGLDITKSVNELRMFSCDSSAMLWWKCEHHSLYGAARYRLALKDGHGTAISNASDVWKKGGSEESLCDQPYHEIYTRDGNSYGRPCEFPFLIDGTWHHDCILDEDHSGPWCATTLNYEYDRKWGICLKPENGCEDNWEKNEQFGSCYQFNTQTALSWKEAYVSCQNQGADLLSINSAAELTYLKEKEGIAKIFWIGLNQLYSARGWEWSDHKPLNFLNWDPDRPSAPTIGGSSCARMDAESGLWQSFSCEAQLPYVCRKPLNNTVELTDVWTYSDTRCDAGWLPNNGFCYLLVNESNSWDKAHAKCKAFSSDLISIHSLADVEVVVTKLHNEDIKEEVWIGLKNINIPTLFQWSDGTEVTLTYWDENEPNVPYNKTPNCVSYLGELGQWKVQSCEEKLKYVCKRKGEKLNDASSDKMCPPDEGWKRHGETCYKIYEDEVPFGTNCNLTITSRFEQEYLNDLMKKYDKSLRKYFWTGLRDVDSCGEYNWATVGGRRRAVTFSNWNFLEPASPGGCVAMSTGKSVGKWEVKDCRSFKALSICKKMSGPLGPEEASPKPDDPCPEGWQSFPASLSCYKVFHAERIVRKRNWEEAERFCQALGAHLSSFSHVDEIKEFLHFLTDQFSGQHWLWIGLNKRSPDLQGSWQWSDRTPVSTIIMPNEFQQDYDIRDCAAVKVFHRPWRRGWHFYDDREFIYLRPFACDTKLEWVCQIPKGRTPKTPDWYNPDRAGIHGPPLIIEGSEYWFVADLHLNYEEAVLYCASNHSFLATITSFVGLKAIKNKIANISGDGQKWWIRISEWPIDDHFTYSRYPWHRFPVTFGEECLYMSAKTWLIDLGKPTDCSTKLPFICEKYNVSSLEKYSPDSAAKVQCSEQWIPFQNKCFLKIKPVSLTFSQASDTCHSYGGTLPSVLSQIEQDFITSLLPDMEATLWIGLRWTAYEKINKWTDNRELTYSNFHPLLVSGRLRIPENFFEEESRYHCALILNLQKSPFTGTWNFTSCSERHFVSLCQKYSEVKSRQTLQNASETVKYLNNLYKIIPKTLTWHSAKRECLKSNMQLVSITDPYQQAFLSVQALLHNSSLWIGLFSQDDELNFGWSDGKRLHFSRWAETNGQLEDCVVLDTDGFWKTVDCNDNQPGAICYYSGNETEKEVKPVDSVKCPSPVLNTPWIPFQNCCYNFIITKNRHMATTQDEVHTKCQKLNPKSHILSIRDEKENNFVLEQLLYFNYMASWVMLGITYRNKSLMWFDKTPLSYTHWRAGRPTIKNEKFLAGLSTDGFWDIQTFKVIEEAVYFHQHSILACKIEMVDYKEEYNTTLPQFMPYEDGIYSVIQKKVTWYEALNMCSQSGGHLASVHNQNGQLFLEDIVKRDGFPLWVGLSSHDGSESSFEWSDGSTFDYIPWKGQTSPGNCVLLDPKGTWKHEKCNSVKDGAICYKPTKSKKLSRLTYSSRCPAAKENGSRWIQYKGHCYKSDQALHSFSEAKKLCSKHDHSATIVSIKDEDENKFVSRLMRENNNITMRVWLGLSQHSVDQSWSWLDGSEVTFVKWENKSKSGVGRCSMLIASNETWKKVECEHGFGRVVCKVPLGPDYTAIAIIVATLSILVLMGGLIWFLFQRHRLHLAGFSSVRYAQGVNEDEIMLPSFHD

isotype control mAb 401.21 (antibody)
0.09 beads/cell: all assays above
